From patent US20100041074A1 (FORERUNNER PHARMA RESEARCH, published 2010) come the findings set out here.

By EC50 is commonly meant the midpoint of the concentration-response curve. A low value points to an effect from little substance.

The target of experiment [1] is T1, GRP78 localized on the cell surface of human cancer cells (human, UniProt P11021 19-654). The experiment can be described thus: cell-based or functional assay.
Experiment [2] addresses T2, GST fused GRP78 protein (GST-GRP78) purified from E. coli (human, UniProt P11021 19-654).
T2 construct: also called GRP78-GST fused protein; not shown: glutathione S-transferase (GST) encoded by the E. coli expression vector pGEX-6P-1 (Amersham Pharmacia), with the vector
The experiment can be described thus: ELISA, plate coated with GST-GRP78 (1 µg/ml), anti-flag detection; same value told for specimens stored at 4° C., left at 37° C. overnight, or frozen and thawed. For orientation: ELISA stands for enzyme-linked immunosorbent assay.

A further experiment concerns the target MBP-GRP78 (376-415) (human, UniProt G3I8R9 376-415 (Cricetulus griseus entry)). As to the kind of experiment: ELISA, plate coated with MBP-GRP78 (376-415) (1 µg/ml), hybridoma culture supernatant.
Experiment [3] addresses T1, GRP78 localized on the cell surface of …. The experiment can be described thus: FACS on prostate cancer cell lines DU145 and 22Rv1, hybridoma culture supernatant.
The target of experiment [4] is T3, GRP78 expressed in mouse cells (Ba/F3, NIH3T3), cell lysate (mouse, UniProt P20029 20-655). As to the kind of experiment: western blot of cell lysates of mouse cell lines with GD-17 antibody (2 µg/ml). (A western blot detects proteins with antibodies after separation by electrophoresis.)
Experiment [5] concerns the target T4, GRP78 expressed in human cells (cell lysate) (human, UniProt P11021 19-654).
T4 construct: Endogenous GRP78 in lysates of human cell lines (DU145, MRC5 and others) after SDS-PAGE and blotting; also called GRP78 expressed in DU145 cells; GRP78 protein in cell lysates
The experiment can be described thus: western blot of cell lysates of human cell lines with GD-17 antibody (2 µg/ml).

Experiment [6] has as its target GRP78 expressed in hamster ovary cells (DG44), cell lysate (hamster, UniProt G3I8R9 19-654). As to the kind of experiment: western blot of NP40 lysate of DG44 cells with GA-20 antibody (2 µg/ml).
The next experiment concerns the target T5, GST-GRP78 (376-415) (human, UniProt G3I8R9 376-415 (Cricetulus griseus entry)).
T5 construct: not shown: glutathione S-transferase (GST) encoded by the E. coli expression vector pGEX-6P-1, with the vector's linker
As to the kind of experiment: western blot of GST fused GRP78 fragments (345-385, 376-415, 406-445).

In experiment [7] the target is T6, GRP78 protein (amino acids 19-654) purified from E. coli (human, UniProt P11021 19-654).
T6 construct: Cut from the GST fusion with PreScission Protease and gel filtered; also called glucose-regulated protein 78; BiP
As to the kind of experiment: ELISA, plate coated with GRP78 protein purified from E. coli, hybridoma culture supernatant.

Experiment [8] has as its target T2, GST fused GRP78 protein (GST-GRP78) …. As to the kind of experiment: western blot, GST fused GRP78 protein (0.1 ug), antibody 2 µg/ml.
Experiment [9] has as its target T3, GRP78 expressed in mouse cells (Ba/F3, …). As to the kind of experiment: western blot of NP40 lysates of Ba/F3 and NIH3T3 cells with GA-20 antibody (2 µg/ml).
Experiment [10] concerns the target T4, GRP78 expressed in human cells (cell …). As to the kind of experiment: western blot, DU145 cell lysate, antibody 2 µg/ml.
For experiment [11], the target named is T1, GRP78 localized on the cell surface of …. The experiment can be described thus: FACS on DU145 cells, antibody 10 µg/ml.
Experiment [12] concerns the target T2, GST fused GRP78 protein (GST-GRP78) …. As to the kind of experiment: ELISA, plate coated with GST-GRP78 (1 µg/ml), HisTrap fractions diluted 40-fold, anti-flag detection.

B1: toxin-labeled GD17 single-chain antibody (GD17scFv-PE40) (scFv)
scFv: MDHHHHHHHHHHKLQVQLQQSGAELARPGASVKLSCKASGYTFTSYWMHWVKQRPGQGLEWIGAIYPGDGDTRYTQKFKGKATLTADKSSSTAYMQLSSLASEDSAVYYCASGITAVADYWGQGTTLTVSSGGGGSGGGGSGGGGSDVVMTQTPLSLPVSLGDQASISCRSSQSLVHSNGNTYLHWYLQKPGQSPKLLIYKVSNRFSGVPDRFSGSGSGTDFTLKISRVEAEDLGVYFCSQSTHVPLTFGAGTKLELKEFGGAPEFPKPSTPPGSSGLEGGSLAALTAHQACHLPLETFTRHRQPRGWEQLEQCGYPVQRLVALYLAARLSWNQVDQVIRNALASPGSGGDLGEAIREQPEQARLALTLAAAESERFVRQGTGNDEAGAANADVVSLTCPVAAGECAGPADSGDALLERNYPTGAEFLGDGGDVSFSTRGTQNWTVERLLQAHRQLEERGYVFVGYHGTFLEAAQSIVFGGVRARSQDLDAIWRGFYIAGDPALAYGYAQDQEPDARGRIRNGALLRVYVPRSSLPGFYRTSLTLAAPEAAGEVERLIGHPLPLRLDAITGPEEEGGRLETILGWPLAERTVVIPSAIPTDPRNVGGDLDPSSIPDKEQAISALPDYASQPGKPPDYKDDDDKKDEL
notes: also called GA17_scFv-PE40
Take B1: in experiment [1], the “cytotoxic activity, EC50 on MCF7 and 22Rv1 cells” value lay within 2 to 4 nM. The 50% effective concentration (EC50) in experiment [2] is ~1.3 nM.

B2: GD-4 antibody (antibody, IgG1, V domains shown)
VH: EVQLVETGGGLVQPKGSLKLSCAASGFTFNTNAMNWVRQAPGKGLEWVARIRSKSNNYAAYYADSVKDRFTISRDDSQSMLYLQMNNLKTEDTAMYYCVREGYGYSLYFDYWGQGTTLTVSS
VL: DIVMTQSPTFLAVTASKKVTINCTASESLYSSKHKVHYLAWYQKKPDQSPKLLIYGASNRYIGVPDRFTGSGSGTDFTLTISSVQVEDLTHYYCAQFYSYPLTFGAGTKLELK
notes: Mouse monoclonal from hybridoma, subtype G1 (IgG1)
Consider B2, for which the binding result (with MBP-GRP78 (376-415); in [3]) was “binds” throughout.

B3: GC-18 antibody (antibody, IgG1, V domains shown)
VH: DVRLQESGPGQVKPSQTVSLTCSVTGYSITNGNHWWNWIRQVSGSKLEWIGYISSSGSTDSNPSLKSRISITRDTSKNQLFLQLNSVTTEDIATYYCARGYYFDYWGQGTTLTVSS
VL: DIVLTQSPASLAVSLGQSVTISCRASESVEYYGTSLMQWYQQKPGQPPKLLIYATSNVESGVPARFSGSGSGTDFSLNIHPVEEDDIAMYFCQQSRKLPSTFGGGTKLEIK
notes: as for B2
Regarding B3, the binding result (in the experiment with MBP-GRP78 (376-415); in experiment [3]) was “binds” in each case.

B4: GD-17 antibody (antibody, IgG1, V domains shown)
VH: QVQLQQSGAELARPGASVKLSCKASGYTFTSYWMHWVKQRPGQGLEWIGAIYPGDGDTRYTQKFKGKATLTADKSSSTAYMQLSSLASEDSAVYYCASGITAVADYWGQGTTLTVSS
VL: DVVMTQTPLSLPVSLGDQASISCRSSQSLVHSNGNTYLHWYLQKPGQSPKLLIYKVSNRFSGVPDRFSGSGSGTDFTLKISRVEAEDLGVYFCSQSTHVPLTFGAGTKLELK
notes: as for B2
Take B4: the binding result (with MBP-GRP78 (376-415); in [4]; in [5]; in experiment [3]) was “binds” each time.

B5: GA-20 antibody (antibody, IgM, V domains shown)
VH: EVQLQQSGPELVKPGASVKISCKTSGYTFTEYTMHWVKQSHGKSLEWIGGINPNNGGTSYNQKFKGKATLTVDKSSSTAYMELRSLTSEDSAVYYCAREKYGNYYAMDYWGQGTSVTVSS
VL: DIVMSQSPSSLAVSAGEKVTMSCKSSQSLLNSRTRKNYLAWYQQKPGQSPKLLIYWASTRESGVPDRFTGSGSGTDFTLTISSVQAEDLAVYYCKQSYNLRTFGGGTKLEIK
notes: Mouse monoclonal from hybridoma, subtype M (IgM); light chain cloned with a kappa primer
Regarding B5, the binding result (in experiment [6]; in the experiment with GST-GRP78 (376-415); in [7]; in experiment [8]; in experiment [9]; in experiment [10]) was “binds” throughout. Also, the binding result in experiment [11] is “binds”.

B6: toxin-labeled GA-20 single-chain Fv antibody (GA20-PE40) (scFv)
scFv: MDHHHHHHHHHHKLEVQLQQSGPELVKPGASVKISCKTSGYTFTEYTMHWVKQSHGKSLEWIGGINPNNGGTSYNQKFKGKATLTVDKSSSTAYMELRSLTSEDSAVYYCAREKYGNYYAMDYWGQGTSVTVSSGGGGSGGGGSGGGGSDIVMSQSPSSLAVSAGEKVTMSCKSSQSLLNSRTRKNYLAWYQQKPGQSPKLLIYWASTRESGVPDRFTGSGSGTDFTLTISSVQAEDLAVYYCKQSYNLRTFGGGTKLEIKEFGGAPEFPKPSTPPGSSGLEGGSLAALTAHQACHLPLETFTRHRQPRGWEQLEQCGYPVQRLVALYLAARLSWNQVDQVIRNALASPGSGGDLGEAIREQPEQARLALTLAAAESERFVRQGTGNDEAGAANADVVSLTCPVAAGECAGPADSGDALLERNYPTGAEFLGDGGDVSFSTRGTQNWTVERLLQAHRQLEERGYVFVGYHGTFLEAAQSIVFGGVRARSQDLDAIWRGFYIAGDPALAYGYAQDQEPDARGRIRNGALLRVYVPRSSLPGFYRTSLTLAAPEAAGEVERLIGHPLPLRLDAITGPEEEGGRLETILGWPLAERTVVIPSAIPTDPRNVGGDLDPSSIPDKEQAISALPDYASQPGKPPDYKDDDDKKDEL
notes: also called GA20scFv-PE40; toxin-labeled GA-20 scFv antibody
On to B6, for which, in [12], the binding result is recorded as “binds”.
